Assay results reported in patent US20210309702A1.

Molecular target: signal regulatory protein a (SIRPa) (mouse) (UniProt P97797)
Assay: cell-based or functional assay

Chain of UniProt P97797 (P97797 32-513): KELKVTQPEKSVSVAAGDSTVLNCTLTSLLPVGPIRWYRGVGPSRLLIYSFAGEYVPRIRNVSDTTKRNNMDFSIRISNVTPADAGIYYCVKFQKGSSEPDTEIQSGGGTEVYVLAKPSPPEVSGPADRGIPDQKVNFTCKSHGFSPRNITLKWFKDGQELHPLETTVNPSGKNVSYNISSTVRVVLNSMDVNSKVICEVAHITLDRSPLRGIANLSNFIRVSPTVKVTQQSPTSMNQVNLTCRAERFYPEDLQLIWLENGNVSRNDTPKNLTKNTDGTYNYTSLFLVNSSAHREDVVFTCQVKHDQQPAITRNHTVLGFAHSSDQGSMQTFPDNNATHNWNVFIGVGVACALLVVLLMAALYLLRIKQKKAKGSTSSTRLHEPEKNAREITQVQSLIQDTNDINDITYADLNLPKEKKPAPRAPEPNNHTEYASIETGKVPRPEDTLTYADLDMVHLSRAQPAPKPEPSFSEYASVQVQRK

“Myc and GFP11-tagged mouse CD47 (CD47-Myc-GFP11) (from UniProt Q61735 19-303)” showed a Gectosomes depleted by RAW 264.7 macrophages after 3 h (BlaM activity remaining in the media) of 10 % depleted and a Gectosomes depleted by RAW 264.7 macrophages after 6 h (BlaM activity remaining in the media) of 50 % depleted.
